Test results as given in patent publication US6797812B2, “Caspase-14, an apoptotic protease, nucleic acids encoding and methods of use” (Thomas Jefferson University, priority 1997, dated 2004).

T1: mouse procaspase-14 (Mus musculus, UniProt O89094)
T1 construct: made in house
T1 sequence (O89094 1-257): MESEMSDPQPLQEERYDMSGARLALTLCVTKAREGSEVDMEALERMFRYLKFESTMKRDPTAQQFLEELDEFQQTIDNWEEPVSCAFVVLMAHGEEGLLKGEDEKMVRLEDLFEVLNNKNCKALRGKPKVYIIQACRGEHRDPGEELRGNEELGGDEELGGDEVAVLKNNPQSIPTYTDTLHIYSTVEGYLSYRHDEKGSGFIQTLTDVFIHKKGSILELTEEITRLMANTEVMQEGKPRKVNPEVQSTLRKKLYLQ

B1: TRAIL: cytotoxic ligand TRAIL (protein, UniProt P50591 1-281, looked up)
Tumor necrosis factor ligand …: MAMMEVQGGPSLGQTCVLIVIFTVLLQSLCVAVTYVYFTNELKQMQDKYSKSGIACFLKEDDSYWDPNDEESMNSPCWQVKWQLRQLVRKMILRTSEETISTVQEKQQNISPLVRERGPQRVAAHITGTRGRSNTLSSPNSKNEKALGRKINSWESSRSGHSFLSNLHLRNGELVIHEKGFYYIYSQTYFRFQEEIKENTKNDKQMVQYIYKYTSYPDPILLMKSARNSCWSKDAEYGLYSIYQGGIFELKENDRIFVSVTNEHLIDMDHEASFFGAFLVG
B2: procaspase-14: proenzyme of caspase-14, a cell death specific cysteine protease of the caspase family (mouse SEQ ID NO:2) (protein)
chain: KPDMESEMSDPQPLQEERYDMSGARLALTLCVTKAREGSEVDMEALERMFRYLKFESTMKRDPTAQQFLEELDEFQQTIDNWEEPVSCAFVVLMAHGEEGLLKGEDEKMVRLEDLFEVLNNKNCKALRGKPKVYIIQACRGEHRDPGEELRGNEELGGDEELGGDEVAVLKNNPQSIPTYTDTLHIYSTVEGYLSYRHDEKGSGFIQTLTDVFIHKKGSILELTEEITRLMANTEVMQEGKPRKVNPEVQSTLRKKLYLQ
B3: caspase-14: purified recombinant caspase-14 material containing small amount of active caspase-14 (protein)
chain: B2 chain
B4: procaspase-3: small prodomain executioner procaspase used as control (protein, UniProt P42574 1-277, looked up)
pro-form: MENTENSVDSKSIKNLEPKIIHGSESMDSGISLDNSYKMDYPEMGLCIIINNKNFHKSTGMTSRSGTDVDAANLRETFRNLKYEVRNKNDLTREEIVELMRDVSKEDHSKRSSFVCVLLSHGEEGIIFGTNGPVDLKKITNFFRGDRCRSLTGKPKLFIIQACRGTELDCGIETDSGVDDDMACHKIPVEADFLYAYSTAPGYYSWRNSKDGSWFIQSLCAMLKQYADKLEFMHILTRVNRKVATEFESFSFDATFHAKKQIPCIVSMLTKELYFYH
modifications: pro-form
notes: small prodomain executioner procaspase used as control

Assays:
mouse procaspase-14 = biological target: T1, mouse procaspase-14; experiment: Processing of 35S labeled procaspase-14 by Granzyme B and purified recombinant caspases; assay type: biochemical; details: Granzyme B 14 ng/μl or recombinant caspases 20 ng/μl, ICE buffer, 37° C., 1 h, FIG. 5B
Experimental: Upon expression in bacteria, all procaspases are known to autoprocess to various degrees to generate the mature caspase which is composed of the large and small subunits. The observed auto-activation in bacterial overexpression systems is probably mediated by overexpression-induced oligomerization. […] To test this possibility procaspase-14 was incubated with Granzyme B which is known to process several caspase proenzymes. In addition procaspase-14 was incubated with different purified recombinant caspases.
Processing of mouse procaspase-14 by Granzyme B and purified recombinant caspases was carried out under the following conditions: ^35S labeled procaspase-14 was incubated with purified Granzyme B (14 ng/μl) or the indicated purified recombinant caspases (20 ng/μl) in ICE buffer (25 mM Hepes, 1 mM EDTA, 5 mM DTT, 0.1% CHAPS, pH 7.5) at 37° C. for 1 h. The reactions were stopped by addition of an SDS-sample buffer and then the products were analyzed by SDS-PAGE and autoradiography.

procaspase-14 = experiment: Processing of T7-tagged procaspase-14 in MCF-7-FAS cells after anti-Fas antibody or TRAIL; assay type: cell-based; details: treated 36 h after transfection for 3 h, FIG. 5C
Experimental: (§1) Since caspase-8 and -10 are initiator caspases that are activated by oligomerization of the death receptors (i.e., Fas, TRAIL-R) by their ligands or agonist antibodies, the possibility that procaspase-14 is processed in vivo after induction of apoptosis by anti-Fas antibody or the cytotoxic ligand TRAIL was tested. A mammalian expression construct encoding N-terminal T7-tagged procaspase-14 was transfected into MCF-7-FAS cells. The cells were treated 36 h after transfection with agonist anti-Fas antibody or TRAIL for 3 h. Cells were harvested and lysed by addition of SDS-sample buffer. The cellular proteins were analyzed by SDS-PAGE and then immunoblotted with an anti-T7 HRP-conjugated monoclonal antibody (FIG. 5C, left panel) to detect procaspase-14. The same samples were also immunoblotted with a polyclonal antibody (anti-Mch3α) that preferentially detects the proform of caspase-7 (FIG. 5C, middle panel), or a mixture of the anti-Mch3α antibody and CM-1 antibody that preferentially detects the processes fragments of caspase-7 (FIG. 5C, right panel) to detect the endogenous caspase-7. Pro indicates the proenzyme, LS indicates the large subunit and SS indicates the small subunit. […] The cleavage products of procaspase-14 were not clearly detectable probably due to loss of the epitope tag after processing of the small prodomain of procaspase-14 at Asp7 or Asp 17. […]

procaspase-7 = experiment: Processing of endogenous procaspase-7 in MCF-7-FAS cells after anti-Fas antibody or TRAIL; assay type: cell-based; details: treated for 3 h, FIG. 5C
Experimental: as §1

MCF-7 cells = experiment: Overexpression of procaspases in MCF-7 cells, morphological signs of apoptosis; assay type: cell-based; details: transient transfection, X-gal staining 30 h after transfection, FIG. 4
Description: On the other hand overexpression of the large prodomain initiator procaspases such as procaspase-8 can induce apoptosis, due to their ability to undergo prodomain-mediated oligomerization. To test the ability of procaspase-14 to induce apoptosis in transfected cells, MCF-7 cells were transiently transfected with procaspase-14 in a PRSC lac-Z expression construct under the CMV promoter. Cells were also transfected with an empty vector or constructs encoding procaspase-3, -6, -8, or -10 as controls. The cells were stained with X-gal 30 h after transfection and examined for morphological signs of apoptosis The percentage of round blue apoptotic cells (mean±SD) were represented as a function of total blue cells under each condition (n≧3). SD was less than 5%.

[1] = Autoprocessing of procaspases overexpressed in bacteria (SDS-PAGE, Coomassie); assay type: biochemical; details: expressed in Escherichia coli, Talon-affinity purified, FIG. 5A
[2] = tested on: S100 extracts from human embryonic kidney 293 cells; experiment: Cytochrome c dependent processing of procaspases in S100 extracts; assay type: biochemical; details: cytochrome c 50 ng/μl, dATP 1 mM, 30° C., 1 h, FIG. 6
Experimental: To determine if caspase-14 was activated by a way of Apaf-1 and caspase-9, cytochrome c dependent activation was tested. ^35S labeled procaspase-3 (FIG. 6, lanes 1 & 2), procaspase-7 (FIG. 6, lanes 3 & 4), or procaspase-14 (FIG. 6, lanes 5 & 6) were incubated with S100 extracts from human embryonic kidney 293 cells in the absence (−) or presence (+) of cytochrome c (50 ng/μl) and dATP (1 mM) in buffer A (20 mM Hepes, 10 mM KCl, 1.5 mM MgCl2, 1 mM EDTA, 1 mM EGTA, 1 mM DTT, 0.1 mM PMSF, pH 7.5) at 30° C. for 1 h. The reaction products were then analyzed by SDS-PAGE and autoradiography.

| Molecule | processing of procaspase-14 (mouse procaspase-14) | induction of apoptosis (round blue apoptotic cells as a function of total blue cells) (MCF-7 cells) | processing of the proenzyme on overexpression in bacteria [1] | also measured |
| --- | --- | --- | --- | --- |
| Granzyme B: purified protease known to process several caspase proenzymes | significant amount of processing | – | – | – |
| B1 | – | – | – | processing of procaspase-14 (decreased intensity of proenzyme band) (procaspase-14): able to induce processing; processing of procaspase-7 (decreased intensity of proenzyme band) (procaspase-7): able to induce processing |
| B2 | – | unable to induce any significant amount of apoptosis | no significant processing | cleavage/activation in S-100 extracts activated by cytochrome c and dATP [2]: no cleavage/activation |
| B3 | Some processing | – | – | – |
| B4 | – | unable to induce any significant amount of apoptosis | completely processes | – |
